Literature values, collected in PMC11497281.

Target: Asp27 (UniProt position 27, WNLPADLAWFK)

Substance: Dihydrofolate reductase (DHFR) (Escherichia coli)
- pKa: approximately 6.5
